In article PMC4310594:

Target: T1, RamA (Klebsiella pneumoniae (Ecl8?)) (UniProt Q48413)
T1 sequence: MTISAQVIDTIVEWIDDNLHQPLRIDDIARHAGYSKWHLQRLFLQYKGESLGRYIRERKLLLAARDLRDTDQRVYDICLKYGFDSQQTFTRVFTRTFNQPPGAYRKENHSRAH
Test: EMSA

Q: For “GCACTTCAACTAAATTCGCCTGAGTTTGGCTCATAAAATCATCCTTACTAAACACCTGACGGGCAAGCATGGCCCTTTCTTGCGCCACAATCACAACATTTTTACAGAATCTTACCTGCACAGGTTAGCGAAAGCTGGCATTTGTTTTACTTTTGGCACACATAAAGTCAAAATTAAGAATTCGTTACGCTGCGTAGGGATAACCCAGCGAGGCGACGATTATACCTGAAG (double strand) [yrbF promoter]”, which binding is on record?
A: binds

Q: With “GCCTGCATAATCGTTTCCTGACAAAAAAGGGTATTGTGACCGATAGTCGCCCACTTGCAAAACCTCTCTGCGCGGTTGGTCATTACCCACCGCACAAATGGGACGTGTTTTTTCGGCTGAAATCGTTACAATCAGGAAATCATACTATCTGGAGTGAACCATGTTAGAGCTTTTGAAAAGTCTGGTTTTTGCGGTCATCATGGTACCGGTGGTGATGGCGGTCATCCTGGGACTGATTTACGGTCTTGGCGAAGTGTTCAAC (double strand) [ybhT promoter]” as the sequence, how does the binding read?
A: binds

Q: “GGAAACGATTGCCAGGACTGGTGCTTCAGGCCTGATAAACCGCTCACTTTGTTAACAACAGTGCTCAGATTTTAATGCATTATTAAAGATGCAGCTTTTCTGGCTGGCGCGTCCAGGATGCGCCAGGCTGGAAGAAGACCTTCAATCTGATGACGATGCTGTAGCAAAGTGAGCCTTTATGACTGACAAATCTGTTCCATTCTCGGTGCTCGATCTGGCGCCGATCCCGCAAGGATCTTCTGCCAAAGAAGCCTTTACCCA (double strand) [yhbW promoter]” was tested. Which binding did it give?
A: binds
